Experiment [1] deals with T1, biotinylated recombinant human UNC5B (human, UniProt Q8IZJ1 27-377).
T1 construct: Made in HEK293-6E and immobilised on an SA chip
Nature of the experiment: SPR, UNC5B immobilised, Draxin injected at 0 to 18.75nM.
Description: (§1) Surface Plasmon Resonance (SPR) experiments were performed on a Biacore 3000 (GE Healthcare) at 25° C. using a SA sensor chip in 0.01 M HEPES, pH 7.4, 0.15 M NaCl, 0.005% Surfactant P20 (HBS-P) running buffer at a flow rate of 30 μl/min. The instrument was used according to manufacturer's instructions.

For experiment [2], the target named is T2, human Netrin1, recombinant AVEXIS protein (biotinylated when immobilised) (human, UniProt O95631 25-604).
T2 construct: also called NTN1
The experiment is described as follows: SPR, Biacore 3000, biotinylated human Netrin1 on SA chip, Draxin injected at 0-18.8 nM.
Description: as §1

Data on one molecule can be found in US20160347802A1 (MAX PLANCK GESELLSCHAFT ZUR FOERDERUNG DER WISSENSCHAFTEN E …, published 2016).

B1: recombinant human Draxin (R&D systems) (ligand)
chain: GALAPGTPARNLPENHIDLPGPALWTPQASHHRRRGPGKKEWGPGLPSQAQDGAVVTATRQASRLPEAEGLLPEQSPAGLLQDKDLLLGLALPYPEKENRPPGWERTRKRSREHKRRRDRLRLHQGRALVRGPSSLMKKAELSEAQVLDAAMEESSTSLAPTMFFLTTFEAAPATEESLILPVTSLRPQQAQPRSDGEVMPTLDMALFDWTDYEDLKPDGWPSAKKKEKHRGKLSSDGNETSPAEGEPCDHHQDCLPGTCCDLREHLCTPHNRGLNNKCFDDCMCVEGLRCYAKFHRNRRVTRRKGRCVEPETANGDQGSFINV
notes: Bought protein
For B1, the binding result in experiment [1] was “no binding (tested: 18.75 nM)”. In addition, the Kd in experiment [2] was in the range of 0.02 to 0.1 µM.
